Reference: patent US20210032331A1 (PHANES THERAPEUTICS, published 2021)

Tests used:
human LAG-3(ECD)-huFc = molecular target: T1, human LAG-3(ECD)-huFc (human, UniProt P18627 23-450); test: SPR (Biacore): mAb from hybridoma supernatant captured on anti-mouse IgG CM5 chip, human LAG-3(ECD)-huFc 50-400 nM injected
T1 construct: also called Fc-tagged human LAG-3(ECD)-huFc; not shown: human Fc (huFc) at the C-terminus
T1 sequence: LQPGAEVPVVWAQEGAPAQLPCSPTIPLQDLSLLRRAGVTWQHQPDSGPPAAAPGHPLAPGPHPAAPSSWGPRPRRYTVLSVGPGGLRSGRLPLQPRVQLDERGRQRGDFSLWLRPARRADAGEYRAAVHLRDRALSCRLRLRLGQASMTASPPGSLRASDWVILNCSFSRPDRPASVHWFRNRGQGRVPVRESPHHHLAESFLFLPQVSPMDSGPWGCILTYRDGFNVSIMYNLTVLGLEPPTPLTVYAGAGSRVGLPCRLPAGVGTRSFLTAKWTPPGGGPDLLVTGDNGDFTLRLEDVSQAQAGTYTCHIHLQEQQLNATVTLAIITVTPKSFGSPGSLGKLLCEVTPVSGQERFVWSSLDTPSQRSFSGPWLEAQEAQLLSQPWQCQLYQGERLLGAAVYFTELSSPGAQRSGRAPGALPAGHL
Method: Anti-mouse IgG antibodies were immobilized via amine coupling on CM5 chip surface. Anti-LAG-3 mAbs in hybridoma supernatants were captured on the chip surface and a series of concentrations (50-400 nM) of human LAG-3(ECD)-huFc protein were injected and passed through the captured surface. The on and off rates for antibody-antigen binding were measured, curve fitted and calculated.

B3C = molecular target: T2, B3C; test: ELISA peptide competition: peptide (1X, 10X, 50X) preincubated with chimeric IgG1 B3, competitor hLAG3-mFc; capture on anti-human IgG, anti-mouse IgG-HRP
T2 construct: Chimeric: mouse VH and VL fused to constant regions of human IgG1 heavy chain and kappa light chain; also called the chimeric version of mouse mAb B3; B3 (human IgG1 heavy chain and kappa light chain chimeric)
Method: (§1) Then human LAG-3 extracellular domain (ECD) fused to mouse Fc (hLAG3-mFc) was added (the final peptide concentration was 600-fold that of hLAG3-mFc) and the mixture was incubated for 60 minutes before being added to an ELISA plate coated with anti-human IgG. The incubation was carried out at 4° C. overnight. After washing, the hLAG3-mFc bound to the immobilized B5/IgG4 on the ELISA plate was detected by adding anti-mouse IgG conjugated to horseradish peroxidase (HRP) and incubating for 60 minutes. Then, after washing, the ELISA was developed using One-step Detection Solution and measured as the absorbance at 450 nm.
(§2) FIGS. 9A-9B show the effect of competition peptides on LAG-3 binding to anti-LAG-3 mAbs.
(§3) Anti-human IgG in carbonate coating buffer was coated on an ELISA plate at 4° C. (50 μL/well at 1 μg/mL) overnight. In each well of a separate plate, a chimeric version of a given anti-LAG-3 mAb (50 μL/well at 1.4 nM) and a competition peptide (50 μL/well at various concentrations as indicated in the figures) were mixed and incubated for 30 minutes at room temperature. Then human LAG-3 extracellular domain (ECD) fused to mouse Fc (hLAG3-mFc) was added to each well (50 μL/well at 2 nM) and the final mixture was incubated at room temperature for 60 minutes before added to the ELISA plate (50 μL/well) for another 60-minute incubation. The final incubation after adding the mixture to the ELISA plate was also performed at 4° C. overnight in some assays.

B4C = molecular target: T3, B4C; test: ELISA peptide competition: peptide (1X, 10X, 50X) preincubated with chimeric IgG1 B4, competitor hLAG3-mFc; capture on anti-human IgG, anti-mouse IgG-HRP
T3 construct: Chimeric: mouse VH and VL fused to constant regions of human IgG1 heavy chain and kappa light chain; also called the chimeric version of mouse mAb B4; B4 (human IgG1 heavy chain and kappa light chain chimeric)
Method: as §1, §2, §3

B7/IgG4 = molecular target: T4, B7/IgG4; test: ELISA peptide competition: peptide preincubated with B7/IgG4, competitor hLAG3-mFc; peptide at 600-fold hLAG3-mFc; final incubation 60 min at room temperature; anti-mouse IgG-HRP
T4 construct: Chimeric: mouse VH and VL with human IgG4 heavy chain and kappa light chain constant regions; also called B7 (human IgG4 heavy chain and kappa light chain chimeric)
Method: as §1, with “B5/IgG4 was preincubated with a competition peptide for 30 minutes. Then human” for “Then human”
The assay condition is the same as in FIG. 5A except that the final incubation of the mAb, the competition peptide, and hLAG3-mFc on the ELISA plate was performed at room temperature for 60 minutes instead of incubation at 4° C. overnight.
as §3, with “incubation.” for “incubation. The final incubation after adding the mixture to the ELISA plate was also performed at 4° C. overnight in some assays.”

Binder	Kd (human LAG-3(ECD)-huFc) [nM]	binding result (B3C)	binding result (B4C)	binding result (B7/IgG4)
B1 (antibody, V domains shown, Mouse mAb from hybridoma; also called mouse anti-LAG-3 mAb B1) VH: DVQLQESGPGLVKPSQSLSLTCTVTGYSITSDYAWNWIRQFPGNKLEWMGYIDYSGITSYNPSLKSRISITRDTSKNQFFLQLNSVTTEDTATYYCAREDHYDLAWFAYWGQGTLVTVSA VL: DIQMTQTTSSLSASLGDRVTISCRASQDISNYLNWYQQKPDGTVKLLIYYTSRLHSGVPSRFSGSGSGTDYSLTISNLEPEDIATYYCHQYSNRPPTFGGGTKLEIK	1.21			
B11 (antibody, V domains shown, Mouse mAb from hybridoma; also called mouse anti-LAG-3 mAb B11) VH: EVQLQQSGPVLVRPGASVKMSCKASGYTFTNYYMNWVKQSHGKSLEWIGVINPYNGDIAYSQKFKGKATLTVDKSSSTAYMELKSLTSEDSAVYYCARDDGYYVYYFDCWGQGTTLTVSS VL: DIQMTQSPSSLSASLGERVSLTCRASQDIGGSLNWLQQKPDGTIKRLIYSTSTLDSGVPKRFSGSRSGSDYSLTISSLESEDFADYYCLQNANSPPTFGGGTKLEIK	1.18			
B2 (antibody, V domains shown, Mouse mAb from hybridoma; also called mouse anti-LAG-3 mAb B2) VH: QVHLQQSGPQLVKPGASVKISCKASGYTFTDYYINWVKQRPGQGLEWIGWIFPGSGSTYYNEKFKGKATLTVDKSSSTAYMLLSSLTSEDSAVYFCVRIHFDYDWFFDVWGTGTTVTVSS VL: DVVMTQTPLSLPVSLGDQASISCRSSQSIVHSNGNTYFYWYLQKPGQSPNLLIYRVSNRFSGVPDRFSGSGSGTDFTLKISRVEAEDMGVYYCFQGTHVPYTFGGGTKLEIK	4.09			
PHPAAPSSWGPRPRRY (also called peptide 15-30) [15-30]		binds	binds	binds
LAPGPHPAAPSSWG (also called peptide 11-24) [11-24]		binds	binds	
APGPHPAAPSSWG (also called peptide 12-24) [12-24]		binds	binds	
AAPSSWGPRPRRY (also called peptide 18-30) [18-30]				binds
B7 (antibody, V domains shown, Mouse mAb from hybridoma; also called mouse anti-LAG-3 mAb B7) VH: EFQLQQSGPELVKPGASVKISCKASGYSFSDYNLNWVKQSNGKTLEWIGLINLDSAATVYNQKFKGKATLTIDQSSTTAYMQLNSLTSDDSAVYYCASYDYWGQGTTLTVSS VL: DIQMTQSPSSLSASLGERVSLSCRASQDISHYLNWFQQKPDGTFKRLIYETSTLDFGVPKRFSGSRSGSDYSLTIGSLESEDFADYYCLQYATYPLTFGAGTKLELK	0.758			
B10 (antibody, V domains shown, Mouse mAb from hybridoma; also called mouse anti-LAG-3 mAb B10) VH: EFQLQQSGPELVKPGASVKISCKASGYSFTDYNLNWVKESNGKSLEWIGLITLDYGTTIYNQKFKGKATLTVDQSSSIAYMQLNSLTSDDSAVYYCACYDYWGQGTTLTVSS VL: DIQMTQSPSSLSASLGERVSLTCRASQDISNYLNWFQQKPDGTFKRLIYATSTLDFGVPKRFSGSRSGSDYSLTISSLESEDFADYYCLQYASYPLTFGAGTKLELK	1.1			
PAAPSSWGPRPRRY (also called peptide 17-30) [17-30]				binds
GPHPAAPSSWG (also called peptide 14-24) [14-24]		binds	binds	
B3 (antibody, V domains shown, Mouse mAb from hybridoma; also called mouse anti-LAG-3 mAb B3) VH: QVQLQQPGAELLKPGASVKMSCKASGYTFTSYDIHWLKQTPGQGLEWIGAIYPENGDSSYSQKFKDKATLTADKSSNTAYIHLSSLTSEDSAVYYCARGGYYDYVWFPYWGQGTLVTVSA VL: DVVMTQTPLSLPVSLGDQASISCRSSQSILYSNGYTYLEWYLQKPGQSPKLLIYGVSNRFSGVPDRFSGSGSGTDFTLKISRVESEDMGVYYCFQGTHVPLTFGAGTKLELK	1.53			
B4 (antibody, V domains shown, Mouse mAb from hybridoma; also called mouse anti-LAG-3 mAb B4) VH: QVQLQQPGAELLKPGASVKMSCKASGYTFTSYDIHWLKQTPGQGLEWIGAIYPENGDSSYSQKFKGKATLTADKSSNTAYIHLSSLTSEDSAVYYCARGGYFDYVWFPYWGQGTLVTVSA VL: DVVMTQTPLSLPVSLGDQASISCRSSQSIVYSNGYTYLEWYLQKPGQSPKLLIYGVSNRFSGVPDRFSGSGSGTDFTLKISRVEAEDMGVYYCFQGTHVPLTFGAGTKLELK	0.217			
PGPHPAAPSSWG (also called peptide 13-24) [13-24]		binds	binds	
PGHPLAPGPHPAAPSS (also called peptide 7-22) [7-22]		no binding (tested: 50X peptide)	no binding (tested: 50X peptide)	
B13 (antibody, V domains shown, Mouse mAb from hybridoma; also called mouse anti-LAG-3 mAb B13) VH: EVMLVESGGGLVKPGGSLKVSCAASGFTFSIYAMCWVRQTPEKRLEWVATISSGGSNTYYPDSVKGRFTISRDNAKNTLYLQMSSLRSEDTAVYYCARGDVYYDYDGRGFDYWGQGTTLTVSS VL: DIVMTQSPSSLTVTAGEKVTMSCKSSQSLLNSGNQKNYLTWYQQKPGQPPKMLIYWASTRESGVPERFTGSGSGTDFTLTINSVQAEDMAIYYCQNDYGYPLAFGAGTRLELK	8.17			
HPAAPSSWGPRPRRY (also called peptide 16-30) [16-30]		binds	binds	binds
PGHPLAPGPHPAAPSSW (also called peptide 7-23) [7-23]		binds	binds	
APSSWGPRPRRY (also called peptide 19-30) [19-30]				binds
